The values below come from patent publication US20240309045A1, “NLRP3 INFLAMMASOME INHIBITORY PEPTIDE FOR TREATMENT OF INFLAMMATORY DISEASES” (AJOU UNIVERSITY INDUSTRY-ACADEMIC COOPERATION FOUNDATION, priority 2021, published 2024).

Assay [1] has as its target T1, NLRP3 inflammasome (Homo sapiens, UniProt Q96P20+Q9ULZ3).
T1 construct: THP1-derived macrophages were primed with LPS (10 ng/ml) for 3 hours and then treated with peptides; endogenous in cells; host or cells: THP1-derived macrophages
The assay can be described thus: NLRP3-mediated IL-1β secretion ELISA (LPS priming, nigericin activation). Format: cell-based. Particulars: THP1-derived macrophages, LPS-primed, peptide 1 to 20 μM (FIG. 1E). How it is done:
(§1) THP1-derived macrophages were seeded at a density of […] in a 96-well plate (BD Biosciences) and grown overnight. The next day, the cells were primed with LPS (Sigma-Aldrich) at a concentration of 10 ng/ml or human tumor necrosis factor alpha (TNF-α; R&D Systems, Minneapolis, Minn., USA) at a concentration of 100 ng/ml for 3 hours, and then treated with peptides at different concentrations for 1 hour. In order to activate the NLRP3 pathway, LPS-primed cells were stimulated for 2 hours with […] nigericin (Invivogen, Carlsbad, CA, USA), which is a known NLRP3 activator. After 6 hours of treatment, the secretion levels of IL-1β and IL-18 were evaluated using a Human IL-1β Uncoated ELISA Kit (Invitrogen) and a Human IL-18 ELISA kit (RayBiotech, Norcross, GA, USA), respectively. The secretion levels of IL-8 and TNF-α were analyzed using a Human IL-8 ELISA kit and a TNF-α ELISA Kit (Invitrogen), respectively. In all experiments, absorbance was analyzed at an appropriate wavelength using a microplate spectrophotometry system (Molecular Devices Inc., Silicon Valley, CA, USA).
(§2) Overall, activation of the NLRP3 inflammasome results not only in cleavage of pro-IL-1β and pro-IL-18, but also in release of active IL-1β and IL-18 and other soluble inflammatory mediators. Thus, NIP was mainly evaluated for regulatory effect on the NLPR3-mediated pathway through the assessment of IL-1β secretion. […]
In general terms: ELISA stands for enzyme-linked immunosorbent assay.

Assay [2] deals with T1, NLRP3 inflammasome. Put plainly: NLRP3-mediated IL-18 secretion ELISA (LPS priming, nigericin activation). In kind it is cell-based. Particulars: THP1-derived macrophages, LPS-primed, nigericin (FIG. 1E, 4B). How it is done: as §1, §2

T1 sequence (Q96P20 whole entry): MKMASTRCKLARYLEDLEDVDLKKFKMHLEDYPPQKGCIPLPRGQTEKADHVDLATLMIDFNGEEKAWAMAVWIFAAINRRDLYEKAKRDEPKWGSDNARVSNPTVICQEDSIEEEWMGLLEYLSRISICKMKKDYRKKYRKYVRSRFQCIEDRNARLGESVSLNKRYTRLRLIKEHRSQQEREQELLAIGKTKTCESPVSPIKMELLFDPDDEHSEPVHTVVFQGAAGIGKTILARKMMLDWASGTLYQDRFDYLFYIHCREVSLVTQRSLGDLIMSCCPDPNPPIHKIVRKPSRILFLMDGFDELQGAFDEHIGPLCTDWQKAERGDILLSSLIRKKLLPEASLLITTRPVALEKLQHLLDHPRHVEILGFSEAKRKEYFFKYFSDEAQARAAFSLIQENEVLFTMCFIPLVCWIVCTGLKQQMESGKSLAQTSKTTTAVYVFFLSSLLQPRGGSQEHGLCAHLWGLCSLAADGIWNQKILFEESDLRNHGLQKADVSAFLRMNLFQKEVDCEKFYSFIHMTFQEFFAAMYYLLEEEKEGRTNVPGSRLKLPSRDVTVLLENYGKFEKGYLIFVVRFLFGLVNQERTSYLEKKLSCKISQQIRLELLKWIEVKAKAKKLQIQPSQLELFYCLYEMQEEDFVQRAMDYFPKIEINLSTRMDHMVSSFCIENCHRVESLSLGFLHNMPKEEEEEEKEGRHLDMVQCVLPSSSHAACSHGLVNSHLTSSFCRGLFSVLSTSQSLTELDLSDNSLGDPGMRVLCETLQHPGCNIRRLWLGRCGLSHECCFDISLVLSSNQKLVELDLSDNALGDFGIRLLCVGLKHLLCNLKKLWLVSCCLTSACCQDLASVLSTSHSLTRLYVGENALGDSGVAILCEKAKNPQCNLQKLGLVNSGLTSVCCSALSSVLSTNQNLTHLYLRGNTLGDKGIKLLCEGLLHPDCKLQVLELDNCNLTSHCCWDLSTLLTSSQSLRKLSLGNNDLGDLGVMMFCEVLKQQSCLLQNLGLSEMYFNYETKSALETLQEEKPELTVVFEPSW
T1 sequence (Q9ULZ3 whole entry): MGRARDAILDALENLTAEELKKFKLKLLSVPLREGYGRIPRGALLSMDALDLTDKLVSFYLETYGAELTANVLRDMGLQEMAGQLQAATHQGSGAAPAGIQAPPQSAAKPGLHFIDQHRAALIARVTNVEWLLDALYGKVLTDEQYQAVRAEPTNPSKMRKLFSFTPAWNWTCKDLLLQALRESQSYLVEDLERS

On to “DALDLTDKLVS (NLRP3/ASC-inhibitory peptide 7 (NIP7)) [evaluated fused at the N-terminus with penetratin]”, for which the “Inhibition of NLPR3-mediated IL-1β secretion” value in assay [1] is on record as “did not have the ability to inhibit”. In addition, the “Inhibition of IL-18 secretion” value in assay [2] is listed as “did not have the ability to inhibit”.
